We go through 14 molecules from US20230272117A1 (published 2023).

Where a chain is given by its changes, count along the chain named.

First the molecules themselves.
B1: C1.787a (antibody, V domains shown)
VH: EVQLTESGPGLVQPSQTLSLTCTVSGFSLTSNGVSWVRQPPGKGLEWIAAISSGGSTYYNSAFKSRLSISRHTSKSQVLLNMNSLQTEDTAMYFCARHRGYYWSNWGYFDYWGQGVMVTVSS
VL: NIQLTQSPSLLSASVGDRVTLSCKGSQNINNYLAWYQQKLGEAPKLLIYKTNSLQTGIPSRFSGSGSGTDYTLTLSSLHSEDLATYYCCQYNDGYTFGAGTKLELK
B2: C1.773 (antibody, V domains shown)
VH: EIQLAQSGPELVKPGASVKMSCKASGYSFIGYFMNWVKQSHGKSLEWIGRINPYNGDTFYNQKFKGKATLTVDKSSSTAHMELRSLTSEDSALYYCTRSGWGYDVYSFDYWGQGTLVTVSS
VL: DIQMTQTPSSLSASLGDRVTISCRASQDISNYLNWYQQKPDGTVKLLIYYTSRLHSGVPSRFSGSGSGTDYSLTISNLEQEDIATYFCQQGNTLPWTFGGGTKLEIK
B3: C1.505 (antibody, V domains shown)
VH: EVQLTESGPGLVQPSQTLSLTCTVSGFSLTSNGVSWVRLPPGKGLEWIAAISSGGNIYYNSALKSRLSISRDTSKSQVFLKMNSLQTEDTAIYFCTRERGWNYPGITNGYYFDYWGQGASVTVSS
VL: DIVLTQSPSLLSASVGDRVILSCKAGQKINNYLAWYQQKLGEAPKLLIYNANSLQTGIPSRFSGSGSGTDYTLTISSLQPEDVATYFCQQYNSWYTFGAGTKLEIK
B4: C1.844.hu21 (antibody, V domains shown)
VH: EVQLVESGGGLIQPGGSLRLSCAVSGFSLTSNGVIWVRQPPGKGLEWIAAISSGGNIYYNSGLKSRLTISRDTSKNTVYLQMNSLRAEDTAVYYCTRARGTTTAYVMDAWGQGTLVTVSS
VL: DIVMTQSPDSLAVSLGERATINCKSSQSLLYSVNQKNYLAWYQQKPGQSPKLLIYWASTRQSGVPDRFSGSGSGTDFTLTISSLQAEDVAVYYCQQYYDTLMKMFGAGTKLELK
B5: C1.861.hu21 (antibody, V domains shown)
VH: B4 VH with I35T, G62A, L63V, Y94F, L115T
VL: DVQLTQSPSSLSASVGDRVTITCKSSQSLLYSGNQKNYLAWYQQKPGKSPKLLIYWASTRQSGVPSRFSGSGSGTDFTLTISSLQPEDVATYYCQQYYDVLMNMFGGGTKLEIK
B6: C1.831.hu11 (antibody, V domains shown)
VH: EVQLQESGPGLVKPSETLSLTCTVSGFSLTSNGVSWVRQPPGKGLEWIAAISSGGNIYYNSVLKSRLTISRDTSKNQVSLKLSSVTAADTAVYYCTRERGWNYPFITNGYYFDYWGQGTLVTVSS
VL: DIQLTQSPSSLSASVGDRVTITCKAGQNINNYLAWYQQKPGKAPKLLIYNANSLQTGIPSRFSGSGSGTDYTLTISSLQPEDFATYYCQQYNSWYTFGQGTKLEIK
B7: C1.861 (antibody, V domains shown)
VH: EVQLKESGPGLVQPSQTLSLTCTVSGFSLTSNGVTWVRQPPGKGLEWIAAISSGGNIYYNSAVKSRLSISRDTSKSQVFLKMNSLQTEDTAIYFCTRARGTTTAYVMDAWGQGASVTVSS
VL: DVVLTQSPSSLAVSAGETVTINCKSSQSLLYSGNQKNYLAWYQQKPGQSPKLLIYWASTRQSGVPDRFIGSGSGTDFTLTISSVQAEDLAIYYCQQYYDVLMNMFGAGTKLEIK
B8: C1.861.hu41 (antibody, V domains shown)
VH: EVQLQESGPGLVKPSETLSLTCTVSGFSLTSSGVTWVRQPPGKGLEWIAAISSGGNIYYNSAVKSRLTISRDTSKNQVSLKLSSVTAADTAVYYCTRARGTTTAYVMDAWGQGTTVTVSS
VL: B5 VL
B9: C1.861.hu61 (antibody, V domains shown)
VH: B4 VH with N32S, I35T, G62A, L63V, Y94F, L115T
VL: B5 VL
B10: C1.831.hu41 (antibody, V domains shown)
VH: B6 VH with N32Q, N108S
VL: B6 VL
B11: C1.835 (antibody, V domains shown)
VH: B1 VH with T5L, S31N, I48V, I51M, S56N, T57I, N81K, W103G, S104Y
VL: B1 VL with N30Y, G57D, L75I, D93N
B12: C1.827 (antibody, V domains shown)
VH: EVQLVESGPGLVQPSQTLSLTCTVSGFSLTNNGVSWVRQPPGKGLEWIAAISNGGNIYHNSALKSRLSISRNTAKSQVLLKMNSLQTEDTAMYFCARHRGYYGYNWGYFDYWGQGASVTVSS
VL: B1 VL with L4V, N30Y, L75I, D93N
B13: C1.831 (antibody, V domains shown)
VH: B3 VH with L39Q, A62V, N83S, L85V, G105F, A119V, S120M
VL: B3 VL with D1E, V3M, I20T, K28N
B14: C1.863 (antibody, V domains shown)
VH: B1 VH with L4R, T5K, S31N, T57I, H72I, N81K, W103G, S104Y
VL: B1 VL with L4M, N30Y, N52S, T56A, G68D, L75I, D93N, L105I

T2 sequence (Q864R9 whole entry): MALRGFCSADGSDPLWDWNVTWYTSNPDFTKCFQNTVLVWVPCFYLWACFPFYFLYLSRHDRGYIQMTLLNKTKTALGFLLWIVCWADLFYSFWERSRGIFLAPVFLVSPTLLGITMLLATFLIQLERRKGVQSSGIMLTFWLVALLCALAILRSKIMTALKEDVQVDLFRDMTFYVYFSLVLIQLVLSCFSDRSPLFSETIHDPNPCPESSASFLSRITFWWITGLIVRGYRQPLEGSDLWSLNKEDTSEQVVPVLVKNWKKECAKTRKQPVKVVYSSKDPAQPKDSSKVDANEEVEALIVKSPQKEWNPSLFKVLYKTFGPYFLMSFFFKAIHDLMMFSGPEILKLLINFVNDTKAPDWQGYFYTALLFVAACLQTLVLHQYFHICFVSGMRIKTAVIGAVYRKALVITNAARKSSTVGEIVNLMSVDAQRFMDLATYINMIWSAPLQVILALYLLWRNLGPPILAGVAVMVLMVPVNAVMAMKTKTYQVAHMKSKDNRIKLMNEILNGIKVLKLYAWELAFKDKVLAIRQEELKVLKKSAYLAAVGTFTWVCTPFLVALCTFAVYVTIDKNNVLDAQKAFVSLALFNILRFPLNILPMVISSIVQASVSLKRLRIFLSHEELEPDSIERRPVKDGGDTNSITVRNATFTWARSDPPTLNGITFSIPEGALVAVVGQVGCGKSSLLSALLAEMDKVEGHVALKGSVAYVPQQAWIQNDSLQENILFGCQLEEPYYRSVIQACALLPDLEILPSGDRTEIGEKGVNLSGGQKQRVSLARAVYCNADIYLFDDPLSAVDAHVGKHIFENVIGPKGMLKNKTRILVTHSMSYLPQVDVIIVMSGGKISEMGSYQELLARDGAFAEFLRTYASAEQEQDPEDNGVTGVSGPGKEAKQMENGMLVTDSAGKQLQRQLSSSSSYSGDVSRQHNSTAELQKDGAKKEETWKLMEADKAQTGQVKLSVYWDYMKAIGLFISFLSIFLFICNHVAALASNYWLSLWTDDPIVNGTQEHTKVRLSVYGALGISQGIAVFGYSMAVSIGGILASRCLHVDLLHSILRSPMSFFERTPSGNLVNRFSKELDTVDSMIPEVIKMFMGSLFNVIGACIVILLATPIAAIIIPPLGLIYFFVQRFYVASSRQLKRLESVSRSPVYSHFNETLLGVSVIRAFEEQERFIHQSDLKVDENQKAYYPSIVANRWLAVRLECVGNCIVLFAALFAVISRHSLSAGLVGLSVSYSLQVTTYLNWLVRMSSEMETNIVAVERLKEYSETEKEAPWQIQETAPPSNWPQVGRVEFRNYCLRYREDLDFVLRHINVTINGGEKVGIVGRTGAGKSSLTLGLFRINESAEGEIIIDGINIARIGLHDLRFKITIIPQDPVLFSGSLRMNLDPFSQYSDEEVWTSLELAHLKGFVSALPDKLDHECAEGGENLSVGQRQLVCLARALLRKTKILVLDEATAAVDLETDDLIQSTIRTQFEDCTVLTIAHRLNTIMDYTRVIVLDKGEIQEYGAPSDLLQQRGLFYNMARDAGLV

The first test addresses T1, human ATP Binding Cassette Subfamily C Member 1 (ABCC1) (UniProt P33527 1-1531). In words: FACS titration on H69AR cells.
One may read the Kd as the concentration at which binding is half-saturated. In turn, B1 came in with a Kd of 4.3 nM.
The same measure, in the same setting: the figure for B2 is 2.5 nM; for B3 it is 7.1 nM.

A further test has as its target T2, cynomolgus monkey ABCC1 (UniProt Q864R9 1-1531). In words: FACS titration on C6-cC1 cells; C6 cells.
The molecule B4 registered a Kd of 11 nM.
On the same count and under the same terms, next, B5: 11 nM.
The same measure, in the same setting: next, B2: 4 nM; B6: 11 nM.

A further test concerns the target T2, cynomolgus monkey ABCC1. In words: FACS titration on C6 cells; C6 cells.
Consider B2, for which the Kd was 19.1 nM.
Still for that read-out and setting: the figure for B7 is 60.1 nM.

In the next test the target is T1, human ATP Binding Cassette Subfamily C …. Put plainly: FACS titration on C6 cells.
In the case of B2, the Kd was found to be 6.5 nM.
In turn, B3 gave a dissociation constant (Kd) of 81.2 nM.

The next test has as its target T2, cynomolgus monkey ABCC1. In words: FACS cell binding.
Molecule B4 showed a Kd of 83 nM.
Take B8: the Kd amounted to 64 nM.
On the same count and under the same terms, next, B5: 37 nM; B9: 135 nM; B10: 20 nM.
Same read-out and setting: the figure for B6 is 27 nM.

For a further test, the target named is T1, human ATP Binding Cassette Subfamily C …. In words: FACS cell binding.
As for B4, the Kd worked out at 103 nM.
Still for that read-out and setting: next, B8: 156 nM; B5: 38 nM; B9: 218 nM.
Still for that read-out and setting: next, B10: 21 nM; B6: 21 nM.

The next test concerns the target T2, cynomolgus monkey ABCC1. Put plainly: FACS titration on C6-cC1 cells.
B2 displayed a Kd of 5.9 nM.

The next test concerns the target T1, human ATP Binding Cassette Subfamily C …. Put plainly: FACS titration on C6-hC1 cells.
For B2, the dissociation constant (Kd) came out at 12.7 nM.

For another test, the target named is T2, cynomolgus monkey ABCC1. Put plainly: FACS titration on C6 cells.
Take B11: binding was characterised by a dissociation constant (Kd) of 575 nM.
Same read-out and setting: next, B12: 67.3 nM; B2: 2.7 nM.
The molecule B13 returned an equilibrium dissociation constant (Kd) of 8.7 nM.

The next test addresses T1, human ATP Binding Cassette Subfamily C …. Put plainly: FACS titration on C6 cells. The source holds these as a separate data set.
Molecule B11 returned a dissociation constant Kd of 144 nM.
The same measure, in the same setting: next, B12: 134 nM; B2: 1.9 nM.
Still for that read-out and setting: next, B3: 35.2 nM; B13: 11.4 nM.

The target is the same in another test. In words: FACS titration on C6-hC1 cells. The source holds these as a separate data set.
Molecule B14 displayed a Kd of 11.7 nM.
B1 yielded a dissociation constant (Kd) of 7.8 nM.
Same read-out and setting: next, B2: 3.7 nM.
Still for that read-out and setting: next, B7: 14.7 nM.

The next test addresses T2, cynomolgus monkey ABCC1. In words: FACS titration on C6-cC1 cells. The source holds these as a separate data set.
Regarding B14, the equilibrium dissociation constant (Kd) was found to be 27.3 nM.
B1: the equilibrium dissociation constant (Kd) worked out at 27.6 nM.
With B2, the Kd stood at 4.6 nM.
Same read-out and setting: the figure for B7 is 28 nM.
